Assays:
Experiment in all cases: EMSA
Conditions in all cases: EMSA: pKa-matched buffers (ethanolamine-CAPSO pH 9.6, Tris-acetate pH 8.0, bis-Tris-ACES pH 6.7), 155 mM NaCl, 5 nM DNA, 2.5-20 or 40 uM protein, 30 min room …
[1] = target: T1, 0100 (Csa1A) (Staphylococcus aureus USA300 LAC) (UniProt Q2FKG1)
T1 sequence: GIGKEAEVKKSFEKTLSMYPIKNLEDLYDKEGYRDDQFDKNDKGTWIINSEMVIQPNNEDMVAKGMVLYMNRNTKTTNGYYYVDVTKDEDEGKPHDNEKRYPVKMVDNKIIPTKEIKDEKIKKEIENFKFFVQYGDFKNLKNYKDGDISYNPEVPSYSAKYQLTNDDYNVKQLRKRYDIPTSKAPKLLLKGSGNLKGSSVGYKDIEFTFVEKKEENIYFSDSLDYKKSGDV

[2] = target: T2, CopL (0079) (Staphylococcus aureus USA300 LAC) (UniProt A0A0H2XFS1)
T2 sequence: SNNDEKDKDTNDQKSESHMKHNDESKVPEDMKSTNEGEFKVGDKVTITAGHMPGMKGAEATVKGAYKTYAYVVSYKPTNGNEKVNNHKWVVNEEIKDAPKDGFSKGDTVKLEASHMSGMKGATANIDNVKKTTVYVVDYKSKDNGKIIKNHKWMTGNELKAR

[3] = target: T3, DsbA (Staphylococcus aureus USA300 LAC) (UniProt A0A0H2XFS3)
T3 sequence: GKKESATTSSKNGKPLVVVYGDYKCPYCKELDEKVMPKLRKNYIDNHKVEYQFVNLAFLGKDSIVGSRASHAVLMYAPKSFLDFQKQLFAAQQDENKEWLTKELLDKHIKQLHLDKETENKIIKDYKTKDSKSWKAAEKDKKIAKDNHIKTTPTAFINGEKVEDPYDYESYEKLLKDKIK

Measured: binding

GTTCATTATGAAGTCCCTCCAAAAATCATTTGATAATATAGTTTACAGCTATAATTGTAAACGCTATCATAAAATGTAACAATATCTTTTTGAAAATTGTAGTCATATTTATGTATAATTAATGAAAATGTTTTTCAAAATCAATAGAAATGGAGTGAGTAAGGTGTATTACATCGCAATCGATATTGGAGGCACTCAAATTAAATCGGCAGTTATTGATAAGCAATTGAATATGTTTGACTATCAACAAATATCAACG (double strand) [259-bp nanA promoter probe]
binds: all assays above

Source: article PMC6593408
